The target of data set [1] is synthetic peptide mimicking the type IV collagen alpha-3 chain, undigested.
The target in data set [2] is synthetic peptide mimicking the type IV collagen alpha-4 chain, undigested.
The target in data set [3] is monoclonal antibody raised against the C4A4-HNE target sequence. Nature of the data set: competitive ELISA: standard peptide against the biotinylated peptide on a streptavidin plate, HRP-conjugated antibody; mean of the standard curves.
The target in data set [4] is monoclonal antibody raised against the C4A3-HNE target sequence. The data set is described as above.

B1: active neutrophil elastase purified from human cells (protein)
chain: IVGGRRARPHAWPFMVSLQLRGGHFCGATLIAPNFVMSAAHCVANVNVRAVRVVLGAHNLSRREPTRQVFAVQRIFENGYDPVNLLNDIVILQLNGSATINANVQVAQLPAQGRRLGNGVQCLAMGWGLLGRNRGIASVLQELNVTVVTSLCRRSNVCTLVRGRQAGVCFGDSGSPLVCNGLIHGIASFVRGGCASGLYPDAFAPVAQFVNWIDSIIQ
On to B1, for which the “release of the neo-epitope after 4 hours of incubation with active HNE, detected by the C4A3-HNE ELISA” value in data set [1] was “HNE was able to generate both neo-epitopes”. The “release of the neo-epitope after 4 hours of incubation with active HNE, detected by the C4A4-HNE ELISA” value in data set [2] is “HNE was able to generate both neo-epitopes”.

The molecule TYPGRHGPPG [C4A4-HNE standard/selection peptide …] registered an IC50 in data set [3] of 0.0336 µg/mL.

In data set [4], EGTRPGPPGP [C4A3-HNE standard/selection peptide …] yielded an IC50 of 0.0731 µg/mL.

Usually IC50 stands for the concentration needed to halve the response being measured. Read a high IC50 as lower potency.

Source of the values: US20260219282A1.
